Measured values reported in IntAct's records for PubMed 20473270.

B1: Zinc finger HIT domain-containing protein 1 (Homo sapiens), O43257 (parent)
chain: MVEKKTSVRSQDPGQRRVLDRAARQRRINRQLEALENDNFQDDPHAGLPQLGKRLPQFDDDADTGKKKKKTRGDHFKLRFRKNFQALLEEQNLSVAEGPNYLTACAGPPSRPQRPFCAVCGFPSPYTCVSCGARYCTVRCLGTHQETRCLKWTV

Variants of: B1
Conditions: with arp6_human ACTR6, Q9GZN1
arp6_human ACTR6, Q9GZN1, sequence (Q9GZN1 whole entry): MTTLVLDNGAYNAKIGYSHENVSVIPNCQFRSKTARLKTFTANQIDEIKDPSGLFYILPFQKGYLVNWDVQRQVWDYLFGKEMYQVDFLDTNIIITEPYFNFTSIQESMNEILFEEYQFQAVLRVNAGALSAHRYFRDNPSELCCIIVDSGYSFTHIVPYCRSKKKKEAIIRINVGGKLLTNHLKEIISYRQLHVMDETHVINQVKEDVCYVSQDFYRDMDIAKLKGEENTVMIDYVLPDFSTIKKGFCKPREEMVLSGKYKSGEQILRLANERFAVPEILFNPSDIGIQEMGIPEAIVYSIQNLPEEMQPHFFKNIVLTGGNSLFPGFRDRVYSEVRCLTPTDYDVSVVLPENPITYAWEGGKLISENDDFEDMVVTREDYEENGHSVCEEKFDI

Effect of a mutation on the interaction, disrupting interaction:
MVEKKTSVRSQDPGQRRVLDRAARQRRINRQLEALENDNFQDDPHAGLPQLGKRLPQFDDDADTGKKKKKARGDHFKLRFRKNFQALLEEQNLSVAEGPNYLTACAGPPSRPQRPFCAVCGFPSPYTCVSCGARYCTVRCLGTHQETRCLKWTV [T71A]
MVEKKTSVRSQDPGQRRVLDRAARQRRINRQLEALENDNFQDDPHAGLPQLGKRLPQFDDDADAGKKKKKTRGDHFKLRFRKNFQALLEEQNLSVAEGPNYLTACAGPPSRPQRPFCAVCGFPSPYTCVSCGARYCTVRCLGTHQETRCLKWTV [T64A]
MVEKKTSVRSQDPGQRRVLDRAARQRRINRQLEALENDNFQDDPHAGLPQLGKRLPQFDDDADTGKKKKKTRGDHFKLRFRKNFQALLEEQNLSVAEGPNYLAACAGPPSRPQRPFCAVCGFPSPYTCVSCGARYCTVRCLGTHQETRCLKWTV [T103A]
MVEKKASVRSQDPGQRRVLDRAARQRRINRQLEALENDNFQDDPHAGLPQLGKRLPQFDDDADTGKKKKKTRGDHFKLRFRKNFQALLEEQNLSVAEGPNYLTACAGPPSRPQRPFCAVCGFPSPYTCVSCGARYCTVRCLGTHQETRCLKWTV [T6A]
